Laboratory results published in US20150377899A1.

Tests used:
[1] = biological target: human Fc region manufactured by Jackson ImmunoResearch Laboratories, Inc. (human); assay: SPR Biacore T100, Fc immobilized on CM5, peptide as analyte
[2] = biological target: human Fc region manufactured by Jackson ImmunoResearch Laboratories, Inc. (human); assay: SPR, KD compared
[3] = biological target: natural human Fc region prepared by papain digestion of human monoclonal IgG (Chugai Pharmaceutical Co., Ltd.) (human); assay: SPR Biacore T100, Fc immobilized on CM5, peptide as analyte
[4] = biological target: natural human Fc region prepared by papain digestion of human monoclonal IgG (Chugai Pharmaceutical Co., Ltd.) (human); assay: SPR, KD compared
[5] = biological target: natural human Fc region prepared by papain digestion of human monoclonal IgG (Chugai Pharmaceutical Co., Ltd.) (human); assay: SPR Biacore T100, Fc immobilized on CM5, Scatchard plot of equilibrium values
[6] = biological target: natural human Fc region prepared by papain digestion of human monoclonal IgG (Chugai Pharmaceutical Co., Ltd.) (human); assay: SPR Biacore T100, Fc immobilized on CM5, polypeptide as analyte

GVVRQWSGGGGSGGGGRSSIAYGGG [2A1Gly peptide]
Kd [1]: 23000 nM
binding affinity as a fraction of that of the 2A1 peptide [2]: < 0.001

DAAWHLGELVWATYYDPETGTWAPDWRLMQGQ [pep11 peptide]
Kd [3]: 510 nM

DAAWHLGELVWATYYDPETGTWQPDWLYMTTR [pep14 peptide]
Kd [3]: 120 nM

DAAWHLGELVWATYYDPETGTWLPDWQTMAQK [pep21 peptide]
Kd [3]: 100 nM
fold improvement in affinity against the FcIII-Ala peptide [4]: 420 fold

DAAWHLGELVWAT [FcIII-Ala peptide]
Kd [5]: 42000 nM

B1: p17-2 peptide (designed binder)
chain: GPGISAFSPGRGVYDPETGTWYDAAWHLGELVWATYYDPETGTWEPDWQRMLGQ
Kd [3]: 1.6 nM
fold improvement in binding affinity against the FcIII-Ala peptide [4]: 26000 fold
fold improvement in binding affinity against the pep24 peptide [4]: 138 fold

DAAWHLGELVWATYYDPETGTWEPDWQRMLGQ [pep24 peptide]
fold higher affinity against the particular sequence (FcIII-Ala) [4]: 190 fold

B2: p17_P46A (designed binder)
chain: GPGISAFSPGRGVYDPETGTWYDAAWHLGELVWATYYDPETGTWEADWQRMLGQ
Kd [6]: 5.6 nM

B3: p17_D47A (designed binder)
chain: GPGISAFSPGRGVYDPETGTWYDAAWHLGELVWATYYDPETGTWEPAWQRMLGQ
Kd [6]: 45 nM

B4: p17_W48A (designed binder)
chain: GPGISAFSPGRGVYDPETGTWYDAAWHLGELVWATYYDPETGTWEPDAQRMLGQ
fold reduction in binding affinity against p17-2 [4]: > 100 fold
Kd [6]: 200 nM

B5: p17_R50A (designed binder)
chain: GPGISAFSPGRGVYDPETGTWYDAAWHLGELVWATYYDPETGTWEPDWQAMLGQ
Kd [6]: 7.8 nM

B6: p17_M51A (designed binder)
chain: GPGISAFSPGRGVYDPETGTWYDAAWHLGELVWATYYDPETGTWEPDWQRALGQ
fold reduction in binding affinity against p17-2 [4]: > 100 fold
Kd [6]: 180 nM
